Data: publication PMC3335734

Key:
[1] = biological target: T1, FliM-YFP (E. coli) (UniProt P06974)
T1 sequence: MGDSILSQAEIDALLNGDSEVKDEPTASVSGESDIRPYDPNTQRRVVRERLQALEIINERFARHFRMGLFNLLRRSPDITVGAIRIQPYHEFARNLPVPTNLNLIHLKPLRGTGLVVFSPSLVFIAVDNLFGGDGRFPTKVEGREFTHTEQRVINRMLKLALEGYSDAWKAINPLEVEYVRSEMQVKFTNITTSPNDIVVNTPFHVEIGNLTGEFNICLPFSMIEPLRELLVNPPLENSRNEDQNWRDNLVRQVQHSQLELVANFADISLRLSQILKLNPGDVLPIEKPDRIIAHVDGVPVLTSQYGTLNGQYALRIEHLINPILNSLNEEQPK

[2] = biological target: T2, wild-type FliM (E. coli) (UniProt P06974)
T2 sequence: T1 sequence

B1: CheY-P (natural protein)
chain: MADKELKFLVVDDFSTMRRIVRNLLKELGFNNVEEAEDGVDALNKLQAGGYGFVISDWNMPNMDGLELLKTIRADGAMSALPVLMVTAEAKKENIIAAAQAGASGYVVKPFTAATLEEKLNKIFEKLGM
modifications: phosphorylated (CheY-P); residue not given
CW bias of motors, bead assay, cheR cheB cells expressing FliM-YFP [1]: 61% | speed of motors, bead assay, cheR cheB cells expressing FliM-YFP [1]: 50.4 Hz | switching rate of motors, bead assay, cheR cheB cells expressing FliM-YFP [1]: 3.8 s⁻¹ | CW bias of motors, bead assay, cheR cheB cells expressing wild-type FliM [2]: 58% | speed of motors, bead assay, cheR cheB cells expressing wild-type FliM [2]: 51.5 Hz | switching rate of motors, bead assay, cheR cheB cells expressing wild-type FliM [2]: 3.4 s⁻¹
